Consider 4 molecules from patent US20140154256A1 (published 2014).

The target in experiment [1] is T1, recombinant human IL-1α (human, UniProt P01583 113-271).
T1 construct: Bought recombinant protein; also called rhIL-1α; hIL-1α
T1 sequence (looked up): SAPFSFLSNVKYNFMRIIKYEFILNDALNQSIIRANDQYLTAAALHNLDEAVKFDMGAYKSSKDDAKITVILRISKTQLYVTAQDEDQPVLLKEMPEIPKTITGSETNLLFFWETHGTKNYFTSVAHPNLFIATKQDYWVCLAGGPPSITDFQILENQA
Briefly: SPR (Biacore). The method, then:
Purified DVD-Ig samples were diluted in HEPES-buffered saline for capture across goat anti-human IgG Fc specific reaction surfaces and injected over reaction matrices at a flow rate of […]. The association and dissociation rate constants, kon (M-1s-1) and koff (s−1) were determined under a continuous flow rate of […]. […] The equilibrium dissociation constant (M) of the reaction between DVD-Ig and rhIL1α/β was then calculated from the kinetic rate constants by the following formula: KD=koff/kon. Aliquots of rhIL1α/β samples were also simultaneously injected over a blank reference and reaction CM surface to record and subtract any nonspecific binding background to eliminate the majority of the refractive index change and injection noise. Surfaces were regenerated with two subsequent […] injections of 10 mM Glycine (pH 1.5) at a flow rate of […]. The anti-Fc antibody immobilized surfaces were completely regenerated and retained their full capture capacity over twelve cycles. The apparent stoichiometry of the captured DVD-Ig-rhIL1α/β complex was calculated under saturating binding conditions (steady-state equilibrium) using the following formula: […]
The affinity of the two DVD-Igs to hIL-1 as compared to the affinity of chimeric Abs to hIL-1 was similar as indicated by the evaluation of the stoichiometry to IL-1. Both chimeric Abs, being bivalent monospecific, bound to IL-1α and IL-1β on Biocore with a stoichiometry of 1.6 and 1.7, respectively. This is common for an IgG due to inter-molecular interference when antibodies are immobilized densely on the Biacore sense chip resulting in stoichiometry being in the range from 1.5 to 2.0.
In general terms: In SPR one partner is held on a chip, and binding of the other changes the refractive index at the surface.

Experiment [2] concerns the target T1, recombinant human IL-1α. Briefly: cell-based or functional assay.
The target in experiment [3] is T2, recombinant human IL-1β (human, UniProt P01584 117-269). Briefly: cell-based or functional assay.
The target of experiment [4] is T1, recombinant human IL-1α. The experiment in a line: cell-based or functional assay. This is another data set of the same source.
Experiment [5] concerns the target T2, recombinant human IL-1β. The experiment in a line: cell-based or functional assay. The source holds these as a separate data set.
Experiment [6] deals with T1, recombinant human IL-1α. The experiment in a line: SPR (Biacore), saturating conditions.
Experiment [7] deals with T2, recombinant human IL-1β. The experiment in a line: SPR (Biacore), saturating conditions.
The target in experiment [8] is T1, recombinant human IL-1α. The experiment in a line: SPR (Biacore); hIL-1α as 1st antigen. The method, then:
(§1) The equilibrium dissociation constant (M) of the reaction between DVD-Ig and rhIL1α/β was then calculated from the kinetic rate constants by the following formula: KD=koff/kon. Aliquots of rhIL1α/β samples were also simultaneously injected over a blank reference and reaction CM surface to record and subtract any nonspecific binding background to eliminate the majority of the refractive index change and injection noise. Surfaces were regenerated with two subsequent […] injections of 10 mM Glycine (pH 1.5) at a flow rate of […]. The anti-Fc antibody immobilized surfaces were completely regenerated and retained their full capture capacity over twelve cycles. The apparent stoichiometry of the captured DVD-Ig-rhIL1α/β complex was calculated under saturating binding conditions (steady-state equilibrium) using the following formula: […]
(§2) In addition, tetravalent dual-specific antigen binding of DVD-Ig was also analyzed by Biacore (Table 14). DVD-Ig was first captured via a goat anti-human Fc antibody on the Biacore sensor chip, and the first antigen was injected and a binding signal observed. As the DVD-Ig was saturated by the first antigen, the second antigen was then injected and the second signal observed. This was done either by first injecting IL-1β then IL-1α or by first injecting IL-1α followed by IL-1β for DVD2-Ig. In either sequence, a dual-binding activity was detected. […]

Experiment [9] deals with T2, recombinant human IL-1β. Briefly: SPR (Biacore); hIL-1β as 1st antigen. The method, then: as §1, §2
For experiment [10], the target named is T1, recombinant human IL-1α. Briefly: SPR (Biacore); hIL-1α as 2nd antigen, DVD1-Ig already occupied by hIL-1β. Here is the method:
as §1, §2

Experiment [11] concerns the target T2, recombinant human IL-1β. Briefly: SPR (Biacore); hIL-1β as 2nd antigen, DVD1-Ig already occupied by hIL-1α. The method, then:
as §1, §2

In experiment [12] the target is T1, recombinant human IL-1α. Briefly: SPR (Biacore 3000); antibody captured via goat anti-human IgG Fc, antigen injected, 1:1 Langmuir fit. The method, then:
(§3) The kinetics of DVD-Ig binding to rhIL1-α and rhIL1-β was determined by surface plasmon resonance-based measurements with a Biacore 3000 instrument (Biacore AB, Uppsala, Sweden) using HBS-EP (10 mM HEPES, pH 7.4, 150 mM NaCl, 3 mM EDTA, and 0.005% surfactant P20) at 25° C. All chemicals were obtained from Biacore AB (Uppsala, Sweden) or otherwise from a different source as described herein. Approximately, 5000 RU of goat anti-human IgG Fcγ fragment specific polyclonal antibody (Pierce Biotechnology Inc, Rockford, Ill.) diluted in 10 mM sodium acetate (pH 4.5) was directly immobilized across a CM5 research grade biosensor chip using a standard amine coupling kit according to manufacturer's instructions and procedures at 25 mg/ml. Unreacted moieties on the biosensor surface were blocked with ethanolamine. Modified carboxymethyl dextran surface in flowcell 2 and 4 was used as a reaction surface. Unmodified carboxymethyl dextran without goat anti-human IgG in flow cell 1 and 3 was used as the reference surface. For kinetic analysis, rate equations derived from the 1:1 Langmuir binding model were fitted simultaneously to association and dissociation phases of all ten injections (using global fit analysis) using the Bioevaluation 4.0.1 software. Purified DVD-Ig samples were diluted in HEPES-buffered saline for capture across goat anti-human IgG Fc specific reaction surfaces and injected over reaction matrices at a flow rate of […]. The association and dissociation rate constants, kon (M-1s-1) and koff (s−1) were determined under a continuous flow rate of […]. […] The equilibrium dissociation constant (M) of the reaction between DVD-Ig and rhIL1α/β was then calculated from the kinetic rate constants by the following formula: KD=koff/kon. Aliquots of rhIL1α/β samples were also simultaneously injected over a blank reference and reaction CM surface to record and subtract any nonspecific binding background to eliminate the majority of the refractive index change and injection noise. Surfaces were regenerated with two subsequent […] injections of 10 mM Glycine (pH 1.5) at a flow rate of […]. The anti-Fc antibody immobilized surfaces were completely regenerated and retained their full capture capacity over twelve cycles.

In experiment [13] the target is T2, recombinant human IL-1β. The description is as above. Here is the method: as §3
The target of experiment [14] is T3, human IL-18 (human, UniProt Q14116 37-193).
T3 construct: also called hIL-18
Briefly: SPR (Biacore).

In experiment [15] the target is T3, human IL-18. The experiment in a line: SPR (Biacore). This is another data set of the same source.
For experiment [16], the target named is T3, human IL-18. Briefly: SPR (Biacore). This is another data set of the same source.
The target in experiment [17] is T3, human IL-18. The experiment in a line: cell-based or functional assay.
The target in experiment [18] is T3, human IL-18. Briefly: cell-based or functional assay. This is another data set of the same source.
For experiment [19], the target named is T3, human IL-18. The experiment in a line: cell-based or functional assay. This is another data set of the same source.
In experiment [20] the target is T4, human CD20 on human B cell line Raji (human, UniProt P11836 1-297).
T4 construct: whole, on cells; also called hCD20
T4 sequence (looked up): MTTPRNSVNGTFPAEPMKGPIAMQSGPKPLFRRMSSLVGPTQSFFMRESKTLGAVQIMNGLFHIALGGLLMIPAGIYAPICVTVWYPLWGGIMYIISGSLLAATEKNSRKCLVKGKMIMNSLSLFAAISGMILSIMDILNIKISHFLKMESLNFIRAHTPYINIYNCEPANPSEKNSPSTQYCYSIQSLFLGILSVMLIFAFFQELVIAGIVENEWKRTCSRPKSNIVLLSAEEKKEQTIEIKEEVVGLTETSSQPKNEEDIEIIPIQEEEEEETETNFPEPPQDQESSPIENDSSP
Briefly: flow cytometry staining of Raji B cells, FITC goat anti-murine IgG. The text has this:
The anti-CD20/anti-CD3 DVD-Ig was generated as chimeric Ig i.e the constant region was a human constant region. For binding analysis, human T cell line Jurkat and B cell line Raji were blocked with human IgG and then stained with murine anti-hCD3 mAb OKT3, murine anti-hCD20 mAb 1F5, and anti-CD20/anti-CD3 DVD-Ig. Cells were then washed and stained with FITC-labeled goat anti-murine IgG (with no anti-hIgG cross-reactivity). Anti-CD20/CD3 DVD-Ig bound both T and B cells, whereas CD3 and CD20 mAbs bound only T or B cells, respectively. The amino acid sequence of CD20/CD3 DVD-Ig is disclosed in Table 25.
On the technique in general: Flow cytometry measures light scatter and fluorescence of single cells or particles in a stream.

Experiment [21] addresses T4, human CD20 on human B cell line Raji. Briefly: preliminary cell surface binding study.

Read-outs that look alike come from different tables or passages of the source.

B1: hIL-1α/βDVD1-Ig (bispecific antibody, human IgG1, kappa)
heavy: not shown
light: NIVLTQSPASLAVSLGQRATISCRASESVDSYGNSYMHWYQQKPGQPPKLLIYLASNLESGVPARFSGSGSRTDFTLTIDPVEADDAATYYCQQNNEDPFTFGSGTKLEIKRNIQMTQTTSSLSASLGDRVTISCRASQDISNCLNWYQQKPDGTVKLLIYYTSRLHSGVPSRFSGSGSGTDYSLTISNLEQEDIATYFCQQGKTLPYAFGGGTKLEINRTVAAPSVFIFPPSDEQLKSGTASVVCLLNNFYPREAKVQWKVDNALQSGNSQESVTEQDSKDSTYSLSSTLTLSKADYEKHKVYACEVTHQGLSSPVTKSFNRGEC
notes: 13F5.G5 variable domains fused directly (no linker) to the N-terminus of 3D12.E3 variable domains, human Cγ1/Cκ; also called hIL-1a/bDVD1-Ig
Consider B1, for which the “fold lower affinity than the chimeric 3D12.E3 Ab” value with recombinant human IL-1α [1] was 2 to 3 fold. Besides, the “dual-inhibition activity, MRC-5 assay with equal amounts of hIL-1α and hIL-1β both present” value in the experiment with recombinant human IL-1α [2] and with recombinant human IL-1β [3] was 2.2 nM throughout. For the same molecule, the “Potency (IC50) M, MRC-5 bioassay” value in the experiment with recombinant human IL-1α [4] is 2.3 nM; with recombinant human IL-1β [5], 3.1 nM. In addition, the Stoichiometry with recombinant human IL-1α [6] was 1.8; in the experiment with recombinant human IL-1β [7] it was 1.5. The “Stoichiometry hIL1α:DVD-Ig” value was 2.3 in the experiment with recombinant human IL-1α [8] and 1.1 with recombinant human IL-1α [10]. Further, the entries for the “Stoichiometry hILβ:DVD-Ig” value with recombinant human IL-1β [9] and with recombinant human IL-1β [11] were 1.5 and 1, respectively. In addition, the Kd with recombinant human IL-1α [12] came to 2.83 nM; with recombinant human IL-1β [13] it was 2.6 nM. The off-rate constant (koff) in the experiment with recombinant human IL-1α [12] turned out to be 0.000105 s⁻¹; with recombinant human IL-1β [13], 0.00159 s⁻¹. Also, the kon with recombinant human IL-1α [12] turned out to be 37000 M⁻¹ s⁻¹; in the experiment with recombinant human IL-1β [13] it was 609000 M⁻¹ s⁻¹.

B2: ABT325 (fully human mAb against human IL-18) (antibody, V domains shown)
VH: EVQLVQSGTEVKKPGESLKISCKGSGYTVTSYWIGWVRQMPGKGLEWMGFIYPGDSETRYSPTFQGQVTISADKSFNTAFLQWSSLKASDTAMYYCARVGSGWYPYTFDIWGQGTMVTVSS
VL: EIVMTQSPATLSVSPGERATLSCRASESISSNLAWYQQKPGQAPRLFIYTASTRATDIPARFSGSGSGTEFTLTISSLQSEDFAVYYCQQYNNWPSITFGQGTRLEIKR
notes: Fully human mAb with a Vκ
For B2, the figures for the Kd in the experiment with human IL-18 [14], in the experiment with human IL-18 [15] and with human IL-18 [16] were 0.137 nM, 0.137 nM and 0.191 nM, respectively. Moreover, the “IC50 (M), KG-1 bioassay (IFN-γ production)” value with human IL-18 [17] stood at 3e-10 M. Also, the “Potency (IC50), KG-1 Assay” value with human IL-18 [18] stood at 0.3 nM. Besides, the “Potency (IC50, M), KG-1 bioassay (IL-18)” value in the experiment with human IL-18 [19] was found to be 6.87e-11 M.

B3: murine anti-human-CD20 mAb clone 5F1 (antibody, V domains shown)
VH: QVQLRQPGAELVKPGASVKMSCKASGYTFTSYNMHWVKQTPGQGLEWIGAIYPGNGDTSYNQKFKGKATLTADKSSSTAYMQLSSLTSEDSAVYYCARSHYGSNYVDYFDYWGQGTTLTVSS
VL: QIVLSQSPAILSASPGEKVTMTCRASSSLSFMHWYQQKPGSSPKPWIYATSNLASGVPARFSGSGSGTSYSLTISRVEAEDAATYFCHQWSSNPLTFGAGTKLELKR
notes: Murine mAb
Consider B3, for which, in [20], the binding result was “binds”.

B4: anti-CD20/anti-CD3 DVD-Ig (CD20CD3DVD-Ig) (bispecific antibody, human IgG1, kappa)
heavy: not shown
light: QIVLSQSPAILSASPGEKVTMTCRASSSLSFMHWYQQKPGSSPKPWIYATSNLASGVPARFSGSGSGTSYSLTISRVEAEDAATYFCHQWSSNPLTFGAGTKLELKRADAAPTVSIFPPQIVLTQSPAIMSASPGEKVTMTCSASSSVSYMNWYQQKSGTSPKRWIYDTSKLASGVPAHFRGSGSGTSYSLTISGMEAEDAATYYCQQWSSNPFTFGSGTKLEINRTVAAPSVFIFPPSDEQLKSGTASVVCLLNNFYPREAKVQWKVDNALQSGNSQESVTEQDSKDSTYSLSSTLTLSKADYEKHKVYACEVTHQGLSSPVTKSFNRGEC
notes: VCD20-linker-VCD3-constant; chimeric Ig with human constant region; also called Anti-CD20/CD3 DVD-Ig
B4: in experiment [21], the binding result was “binds”.

As usually defined, the Kd is the constant that tells how readily two partners part at equilibrium. In general, koff refers to a measure of how fast the partners let go of each other. What is called kon is the second-order rate constant of association.
